The source of these data is patent US20050288488.

For series [1], the target named is AhR-ARNT heterodimer (human AhR, human ARNT) (Homo sapiens) (UniProt P35869+P27540). The experiment in a line: cell_activity. As to conditions: yeast A303 lacZ reporter, average induction over background with bNF or aNF; ligand EC50 7.9e-8 M for bNF.
Series [2] has as its system LexA(1-202)-AhR N-delta-166 chimera (Escherichia coli? / Mus musculus?). Kind of series: cell_activity. Conditions: yeast GRS4 lacZ reporter, average induction over background with bNF or aNF; ligand EC50 6.1e-8 M for bNF.

AhR-ARNT heterodimer (human AhR, human ARNT) (Homo sapiens), sequence (P35869 whole entry, chain 1 of 2): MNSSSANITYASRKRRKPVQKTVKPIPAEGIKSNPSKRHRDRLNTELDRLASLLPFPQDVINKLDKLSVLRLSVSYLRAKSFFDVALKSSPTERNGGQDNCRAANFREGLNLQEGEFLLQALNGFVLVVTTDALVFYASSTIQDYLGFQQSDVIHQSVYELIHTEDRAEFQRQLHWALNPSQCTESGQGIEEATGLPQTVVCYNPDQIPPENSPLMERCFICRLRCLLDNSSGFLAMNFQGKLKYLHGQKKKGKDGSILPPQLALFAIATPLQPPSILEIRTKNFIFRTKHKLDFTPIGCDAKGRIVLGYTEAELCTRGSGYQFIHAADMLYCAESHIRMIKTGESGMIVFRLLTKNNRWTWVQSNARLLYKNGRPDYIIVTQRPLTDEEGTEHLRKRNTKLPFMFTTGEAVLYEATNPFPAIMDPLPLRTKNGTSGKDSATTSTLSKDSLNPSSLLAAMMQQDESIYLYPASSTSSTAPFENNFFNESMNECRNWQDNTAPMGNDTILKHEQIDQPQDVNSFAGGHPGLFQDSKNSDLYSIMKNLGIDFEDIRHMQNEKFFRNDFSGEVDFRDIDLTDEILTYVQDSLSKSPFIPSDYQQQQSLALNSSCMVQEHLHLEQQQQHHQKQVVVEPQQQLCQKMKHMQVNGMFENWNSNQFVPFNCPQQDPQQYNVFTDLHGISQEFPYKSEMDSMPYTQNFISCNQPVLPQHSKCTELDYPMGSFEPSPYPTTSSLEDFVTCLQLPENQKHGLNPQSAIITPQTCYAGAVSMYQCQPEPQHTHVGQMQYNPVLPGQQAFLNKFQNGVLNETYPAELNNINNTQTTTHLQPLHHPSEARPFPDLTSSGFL
AhR-ARNT heterodimer (human AhR, human ARNT) (Homo sapiens), sequence (P27540 whole entry, chain 2 of 2): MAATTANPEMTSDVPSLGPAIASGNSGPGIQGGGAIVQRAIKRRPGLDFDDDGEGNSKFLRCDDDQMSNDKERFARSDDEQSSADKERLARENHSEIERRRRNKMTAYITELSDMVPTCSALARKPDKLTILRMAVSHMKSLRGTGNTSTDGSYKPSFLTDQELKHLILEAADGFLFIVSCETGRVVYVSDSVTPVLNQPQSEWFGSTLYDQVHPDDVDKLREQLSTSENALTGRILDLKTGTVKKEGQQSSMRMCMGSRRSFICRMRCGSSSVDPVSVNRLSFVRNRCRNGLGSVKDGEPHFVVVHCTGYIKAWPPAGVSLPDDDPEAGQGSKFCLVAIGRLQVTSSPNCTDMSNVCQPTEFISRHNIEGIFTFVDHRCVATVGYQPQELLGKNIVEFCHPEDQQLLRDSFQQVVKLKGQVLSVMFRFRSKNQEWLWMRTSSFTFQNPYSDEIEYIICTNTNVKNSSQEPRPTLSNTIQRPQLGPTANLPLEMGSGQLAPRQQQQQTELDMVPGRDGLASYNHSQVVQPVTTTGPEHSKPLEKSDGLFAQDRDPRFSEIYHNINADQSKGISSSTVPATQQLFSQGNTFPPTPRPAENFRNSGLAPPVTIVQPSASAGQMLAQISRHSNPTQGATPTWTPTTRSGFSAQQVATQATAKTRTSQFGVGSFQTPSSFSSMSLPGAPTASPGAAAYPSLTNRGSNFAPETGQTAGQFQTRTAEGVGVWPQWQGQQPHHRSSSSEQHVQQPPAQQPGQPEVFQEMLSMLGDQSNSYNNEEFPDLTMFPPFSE

DRE2-DRE3 reporter (pDRE23-Z) showed an activity in series [1] of 12 fold.
For eight LexA operator reporter (pSH18-34), in series [2], the activity turned out to be 90 fold.
